Data published in patent US20250277051A1 (HANGZHOU UNOGEN BIOTECH, published 2025).
Substitutions are numbered along the chain they refer to.

Columns and labels:
[1] = target: T1, recombinant human CD38 protein (human, UniProt P28907 43-300, biotin labeled); test: ELISA on recombinant human CD38, OD 450 nm
T1 construct: Biotin labeled and captured on streptavidin coated plates; also called human CD38 target
Procedure: (§1) Biotin labeled recombinant CD38 protein was bound to streptavidin coated ELISA plates to capture the antigen on the solid phase. Varying concentrations of the tested anti-CD38 antibodies were then added to the coated plates and the bound antibodies were detected and quantified using standard ELISA protocols. […] Biotin labeled cynomolgus recombinant CD38 protein was bound to a streptavidin coated ELISA plate to capture the antigen on the solid phase. Varying concentrations of the tested anti-CD38 antibodies were then added to the coated plates and the bound antibodies were detected and quantified using standard ELISA protocols.

[2] = target: T2, recombinant mouse CD38 protein (mouse, UniProt P56528 45-304, limits assumed, biotin labeled); test: ELISA, biotinylated recombinant mouse CD38 captured on a streptavidin plate, OD 450 nm
T2 construct: also called mouse recombinant CD38 protein; mouse CD38 antigen
T2 sequence (looked up): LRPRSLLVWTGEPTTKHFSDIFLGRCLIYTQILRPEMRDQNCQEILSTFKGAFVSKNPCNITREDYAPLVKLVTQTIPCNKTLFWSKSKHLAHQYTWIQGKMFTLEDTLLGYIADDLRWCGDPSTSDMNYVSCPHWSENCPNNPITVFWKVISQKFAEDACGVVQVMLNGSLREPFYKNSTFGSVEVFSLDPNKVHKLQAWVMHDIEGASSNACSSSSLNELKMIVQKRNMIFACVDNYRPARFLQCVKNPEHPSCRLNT
Procedure: as §1

[3] = target: T1, recombinant human CD38 protein; test: ELISA, biotinylated recombinant human CD38 captured on a streptavidin plate, OD 450 nm
[4] = target: T3, recombinant cynomolgus monkey CD38 protein (cynomolgus monkey, UniProt Q5VAN0 44-301, biotin labeled); test: ELISA, biotinylated recombinant cynomolgus monkey CD38 captured on a streptavidin plate, OD 450 nm
T3 construct: Biotin labeled and captured on a streptavidin coated plate; also called cynomolgus monkey CD38 antigen; cynomolgus recombinant CD38 protein
Procedure: as §1

[5] = target: T1, recombinant human CD38 protein; test: ELISA on recombinant human CD38, OD 450 nm; remark: listed apart in the source
Procedure: as §1

[6] = target: T4, recombinant cynomolgus monkey CD3 delta and epsilon domain protein (cynomolgus monkey, UniProt Q95LI5 22-117; Q95LI8 22-105, biotin labeled); test: ELISA, recombinant antigen on plate
T4 construct: Biotin labeled and captured on a streptavidin coated ELISA plate; also called cynomolgus monkey recombinant CD3 protein, consisting of CD3 epsilon and CD3 delta chains
Procedure: (§2) The y axis is the binding response expressed in optical density at 450 nm absorbance units. The x axis is the concentration of the molecules tested.
(§3) Biotin labeled cynomolgus monkey recombinant CD3 protein, consisting of CD3 epsilon and CD3 delta chains, was bound to a streptavidin coated ELISA plate to capture the antigen on the solid phase. Varying concentrations of the tested anti-CD3 antibody was then added to the coated plates and the bound antibodies were detected and quantified using standard ELISA protocols.

[7] = target: T5, recombinant human CD3 delta and epsilon domain protein (human, UniProt P07766 23-126; P04234 22-105, biotin labeled); test: ELISA, biotinylated recombinant human CD3 epsilon/delta captured on a streptavidin plate, OD 450 nm
T5 construct: Biotin labeled and captured on a streptavidin coated ELISA plate; also called human recombinant CD3 protein, consisting of CD3 epsilon and CD3 delta chains
Source text: Biotin labeled human recombinant CD3 protein, consisting of CD3 epsilon and CD3 delta chains, was bound to a streptavidin coated ELISA plate to capture the antigen on the solid phase.

[8] = target: T4, recombinant cynomolgus monkey CD3 delta …; test: ELISA, biotinylated recombinant cynomolgus monkey CD3 epsilon/delta captured on a streptavidin plate, OD 450 nm
Procedure: as §2, §3

T4 sequence (Q95LI5 22-117, stated change not applied, chain 1 of 2): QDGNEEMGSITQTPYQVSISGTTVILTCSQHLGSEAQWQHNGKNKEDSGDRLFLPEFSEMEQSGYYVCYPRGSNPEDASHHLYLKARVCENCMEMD
T4 sequence (Q95LI8 22-105, stated change not applied, chain 2 of 2): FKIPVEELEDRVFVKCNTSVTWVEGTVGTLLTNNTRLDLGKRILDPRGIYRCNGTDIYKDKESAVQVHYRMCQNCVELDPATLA
T5 sequence (P07766 23-126, stated change not applied, chain 1 of 2): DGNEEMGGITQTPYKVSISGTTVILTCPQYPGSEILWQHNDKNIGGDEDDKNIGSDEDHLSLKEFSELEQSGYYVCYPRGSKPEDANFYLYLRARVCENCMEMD
T5 sequence (P04234 22-105, stated change not applied, chain 2 of 2): as the sequence (Q95LI8 22-105, stated change not applied, chain 2 of 2) above, with V5I, K15N, V20I, T32S, N33D, N34I, A64T, N74S, L83V counted along it

B1: SEQ ID NO 21 (VHH)
VHH: QMQLVQSGAEVKKTGSSVKVSCKGSGRTFRNYPMAWFRQAPGQEREFMGGITWVGASTLYAQKAQDRVTITRDRSMSTAYMELSSLRSEDTAMYSCAAGRGIVAGRIPAEYADWGQGTLVTVSS
notes: VHO single domain; also called CD38 5FIOK VHO2
- binding result [1]: binds

B2: SEQ ID NOs: 2 and 3 (mAb) (antibody, V domains shown)
VH: QVQLVQSGAEVAKPGTSVKLSCKASGYTFTDYWMQWVKQRPGQGLEWIGTIYPGDGDTGYAQKFQGKATLTADKSSKTVYMHLSSLASEDSAVYYCARGDYYGSNSLDYWGQGTSVTVSS
VL: DIVMTQSHLSMSTSLGDPVSITCKASQDVSTVVAWYQQKPGQSPRRLIYSASYRYIGVPDRFTGSGAGTDFTFTISSVQAEDLAVYYCQQHYSPPYTFGGGTKLEIK
notes: also called CD38 LC1; CD38 HC1
- binding result [2]: no binding (tested: about 60 nM)

B3: SEQ ID NO 5 (VHH)
VHH: EVQLQESGGGLVQAGGSLRLSCTGSGRTFRNYPMAWFRQAPGKEREFVAGITWVGASTLYADFAKGRFTISRDNAKNTVYLQMNSLKPEDTAVYSCAAGRGIVAGRIPAEYADWGQGTQVTVSS
notes: also called CD38 5F1K VHO1
- binding result [3]: binds
- binding result [2]: no binding (tested: about 60 nM)
- binding result [4]: binds

B4: SEQ ID NO 24 (VHH)
VHH: B3 VHH with E1D, R30Y, N31L, L59N, V103T
notes: VHO single domain; also called CD38 5FIOK VHO5
- binding result [1]: binds

B5: SEQ ID NO 17 (VHH)
VHH: QVQLVQSGAEVKKPGASVKVSCKASGSRFDNYAMGWFRQAPGQEREFMGAISWSSGTTRYAQKVQGRVTMTRDTSTSTVYMELSSLRSEDTAVYYCAARYQPRYYDSGDMDGYEYDNWGQGTLVTVSS
notes: VHO single domain; also called CD38 5FIO VHO2
- binding result [1]: binds

B6: SEQ ID NO 6 (VHH)
VHH: EVQLQESGGGSVQAGGSLTLSCTASGLLFRLASMGWYRQAPGKERELIATITVGGKTNYKDSVQGRFIITRDNTGDNTKSTVTLQMNRLKPEDTAVYYCNTASPAVGADTWGQGTRVTVSS
notes: also called CD38 5F21 VHO1
- binding result [3]: binds
- binding result [2]: no binding (tested: about 60 nM)
- binding result [4]: no binding (tested: about 30 nM)

B7: SEQ ID NO 18 (VHH)
VHH: QVTLKESGPVLVKPTETLTLTCTGSGSRFDNYAMGWFRQPPGKEREFLAAISWSSGTTRYSTSLKSRLTISRDTSKSQVVLTMTNMDPVDTATYYCAARYQPRYYDSGDMDGYEYDNWGQGTLVTVSS
notes: VHO single domain; also called CD38 5FIO VHO3
- binding result [1]: binds

B8: SEQ ID NO 29 (VHH)
VHH: DVQLQESGGGSVQAGGSLTLSCTASGWLFRLASMGWYRQAPGKEREMIAVITTGGRTNYKDSVQGRFIITRDNTKSTVTLQMNRLKPEDTAVYYCNTSMPVVGADEWGQGTRVTVSS
notes: VHO single domain; also called CD38 5F21 VHO5
- binding result [5]: binds

B9: SP34 (antibody, V domains shown)
VH: EVQLVESGGGLVQPGGSLKLSCAASGFTFNTYAMNWVRQAPGKGLEWVARIRSKYNNYATYYADSVKDRFTISRDDSKNTAYLQMNNLKTEDTAVYYCVRHGNFGNSYVSWFAYWGQGTLVTVSS
VL: QTVVTQEPSLTVSPGGTVTLTCRSSTGAVTTSNYANWVQQKPGQAPRGLIGGTNKRAPGTPARFSGSLLGGKAALTLSGVQPEDEAEYYCALWYSNLWVFGGGTKLTVL
notes: also called positive control anti-CD3 antibody
- binding result [6]: binds

B10: SP34 v8 (antibody, V domains shown)
VH: B9 VH with S110A
VL: B9 VL
notes: also called SP34 v8 LC; SP34 v8 HC
- binding result [7]: binds
- EC50 (read off the curve) [8]: ~0.08 nM

B11: SEQ ID NO 4 (VHH)
VHH: EVQLQESGGGLVQAGHSLRLSCVGSGSRFDNYAMGWFRQAPGKEREFVAAISWSSGTTRYLDTVKGRFTISRDNAKSTVYLQMNSLKPEDTAVYYCAARYQPRYYDSGDMDGYEYDNWGQGTQVTVSS
notes: Variable-heavy-only (VHO) single domain; also called CD38 5FIO VHO1
- binding result [3]: binds
- binding result [2]: binds
- EC50 (read off the curve) [4]: ~0.4 nM

B12: SEQ ID NO: 4×SP34 v8 (bispecific antibody, V domains shown)
VHH: B11 VHH
VH: B9 VH with S110A
VL: B9 VL
notes: CD38 VHO arm paired with a CD3 arm
- EC50 (read off the curve) [3]: ~0.1 nM

B13: SEQ ID NO 20 (VHH)
VHH: B11 VHH with E1D, S27D, P102N, Y104F
notes: VHO single domain; also called CD38 5FIO VHO5
- binding result [1]: binds
